Test results as given in the supplement of paper PMC11316812.
± gives the standard deviation of the averaged measurements.

Columns and labels:
MCF7 = test: percentage of EdU-negative (G0-arrested) nuclei per well, 72 h; higher = more G0 arrest; conditions: reference: sequence is the full UniProt precursor, the tested protein was the secreted form or ectodomain
hTERT-HMEC = test: as above; conditions: reference: sequence is the full UniProt precursor, the tested protein was the secreted form or ectodomain
[1] = protein concentration 0.0225 µM
[2] = protein concentration 0.02117 µM
[3] = protein concentration 0.2117 µM
[4] = protein concentration 0.0153175 µM
[5] = protein concentration 0.153175 µM
[6] = protein concentration 0.01025 µM
[7] = protein concentration 0.1025 µM
[8] = protein concentration 0.03125 µM
[9] = protein concentration 0.3125 µM
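Note: secreted proteins added to cultured cells, EdU pulse at the end, nuclei found by Hoechst imaging, EdU status from nuclear versus surrounding ring intensity ratio, PBS as neutral control.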

Row | Sequence | percentage of EdU-negative (MCF7; [1]) | percentage of EdU-negative (MCF7; protein concentration 0.225 µM) | percentage of EdU-negative (hTERT-HMEC; [1]) | percentage of EdU-negative (hTERT-HMEC; protein concentration 0.225 µM) | further results
1 | MSMSPTVIILACLGFFLDQSVWAHVGGQDKPFCSAWPSAVVPQGGHVTLRCHYRRGFNIFTLYKKDGVPVPELYNRIFWNSFLISPVTPAHAGTYRCRGFHPHSPTEWSAPSNPLVIMVTGLYEKPSLTARPGPTVRAGENVTLSCSSQSSFDIYHLSREGEAHELRLPAVPSINGTFQADFPLGPATHGETYRCFGSFHGSPYEWSDPSDPLPVSVTGNPSSSWPSPTEPSFKTGIARHLHAVIRYSVAIILFTILPFFLLHRWCSKKKDAAVMNQEPAGHRTVNREDSDEQDPQEVTYAQLDHCIFTQRKITGPSQRSKRPSTDTSVCIELPNAEPRALSPAHEHHSQALMGSSRETTALSQTQLASSNVPAAGI | 24.4 ± 3.2% | 25.68 ± 0.13% | 5.29 ± 1.2% | 4.83 ± 0.51% | 
2 | MSNTQAERSIIGMIDMFHKYTRRDDKIEKPSLLTMMKENFPNFLSACDKKGTNYLADVFEKKDKNEDKKIDFSEFLSLLGDIATDYHKQSHGAAPCSGGSQ | 23.5 ± 2.3% | 26.5 ± 2.3% | 5.43 ± 0.67% | 5.53 ± 0.45% | 
3 | MSPHLTALLGLVLCLAQTIHTQEGALPRPSISAEPGTVISPGSHVTFMCRGPVGVQTFRLEREDRAKYKDSYNVFRLGPSESEARFHIDSVSEGNAGLYRCLYYKPPGWSEHSDFLELLVKESSGGPDSPDTEPGSSAGTVPGTEASGFDAP [Q6ISS4] | 24.7 ± 0.63% | 27.9 ± 3.5% | 4.81 ± 0.34% | 6.43 ± 0.35% | 
4 | MSPHPTALLGLVLCLAQTIHTQEEDLPRPSISAEPGTVIPLGSHVTFVCRGPVGVQTFRLERDSRSTYNDTEDVSQASPSESEARFRIDSVREGNAGLYRCIYYKPPKWSEQSDYLELLVKESSGGPDSPDTEPGSSAGPTQRPSDNSHNEHAPASQGLKAEHLYILIGVSVVFLFCLLLLVLFCLHRQNQIKQGPPRSKDEEQKPQQRPDLAVDVLERTADKATVNGLPEKDRETDTSALAAGSSQEVTYAQLDHWALTQRTARAVSPQSTKPMAESITYAAVARH [Q6GTX8] | 23.2 ± 1.6% | 24.29 ± 0.027% | 5.38 ± 0.85% | 5.62 ± 0.45% | 
5 | MSPLLRRLLLAALLQLAPAQAPVSQPDAPGHQRKVVSWIDVYTRATCQPREVVVPLTVELMGTVAKQLVPSCVTVQRCGGCCPDDGLECVPTGQHQVRMQILMIRYPSSQLGEMSLEEHSQCECRPKKKDSAVKPDRAATPHHRPQPRSVPGWDSAPGAPSPADITHPTPAPGPSAHAAPSTTSALTPGPAAAAADAAASSVAKGGA |  |  |  |  | percentage of EdU-negative (MCF7; [2]): 25 ± 0.51%; percentage of EdU-negative (MCF7; [3]): 26.88 ± 0.25%; percentage of EdU-negative (hTERT-HMEC; [2]): 4.57 ± 0.19%; percentage of EdU-negative (hTERT-HMEC; [3]): 6.4 ± 1.3%
6 | MSPNFKLQCHFILIFLTALRGESRYLELREAADYDPFLLFSANLKRELAGEQPYRRALRCLDMLSLQGQFTFTADRPQLHCAAFFISEPEEFITIHYDQVSIDCQGGDFLKVFDGWILKGEKFPSSQDHPLPSAERYIDFCESGLSRRSIRSSQNVAMIFFRVHEPGNGFTLTIKTDPNLFPCNVISQTPNGKFTLVVPHQHRNCSFSIIYPVVIKISDLTLGHVNGLQLKKSSAGCEGIGDFVELLGGTGLDPSKMTPLADLCYPFHGPAQMKVGCDNTVVRMVSSGKHVNRVTFEYRQLEPYELENPNGNSIGEFCLSGL |  |  |  |  | percentage of EdU-negative (MCF7; [4]): 25.7 ± 1.4%; percentage of EdU-negative (MCF7; [5]): 28.3 ± 0.6%; percentage of EdU-negative (hTERT-HMEC; [4]): 5.2 ± 0.25%; percentage of EdU-negative (hTERT-HMEC; [5]): 6.58 ± 0.22%
7 | MSPSPTALFCLGLCLGRVPAQSGPLPKPSLQALPSSLVPLEKPVTLRCQGPPGVDLYRLEKLSSSRYQDQAVLFIPAMKRSLAGRYRCSYQNGSLWSLPSDQLELVATGVFAKPSLSAQPGPAVSSGGDVTLQCQTRYGFDQFALYKEGDPAPYKNPERWYRASFPIITVTAAHSGTYRCYSFSSRDPYLWSAPSDPLELVVTGTSVTPSRLPTEPPSPVAEFSEATAELTVSFTNEVFTTETSRSITASPKESDSPAGPARQYYTKGNLVRICLGAVILIILAGFLAEDWHSRRKRLRHRGRAVQRPLPPLPPLPLTRKSNGGQDGGRQDVHSRGLCS [Q9HCN6] | 24.78 ± 0.15% | 24.9 ± 1.1% | 4.56 ± 0.87% | 5.35 ± 0.6% | 
8 | MSRELAPLLLLLLSIHSALAMRICSFNVRSFGESKQEDKNAMDVIVKVIKRCDIILVMEIKDSNNRICPILMEKLNRNSRRGITYNYVISSRLGRNTYKEQYAFLYKEKLVSVKRSYHYHDYQDGDADVFSREPFVVWFQSPHTAVKDFVIIPLHTTPETSVKEIDELVEVYTDVKHRWKAENFIFMGDFNAGCSYVPKKAWKNIRLRTDPRFVWLIGDQEDTTVKKSTNCAYDRIVLRGQEIVSSVVPKSNSVFDFQKAYKLTEEEALDVSDHFPVEFKLQSSRAFTNSKKSVTLRKKTKSKRS |  |  |  |  | percentage of EdU-negative (MCF7; [6]): 28.5 ± 1.3%; percentage of EdU-negative (MCF7; [7]): 27 ± 2%; percentage of EdU-negative (hTERT-HMEC; [6]): 4.824 ± 0.022%; percentage of EdU-negative (hTERT-HMEC; [7]): 5.74 ± 0.076%
9 | MSRGLQLLLLSCAYSLAPATPEVKVACSEDVDLPCTAPWDPQVPYTVSWVKLLEGGEERMETPQEDHLRGQHYHQKGQNGSFDAPNERPYSLKIRNTTSCNSGTYRCTLQDPDGQRNLSGKVILRVTGCPAQRKEETFKKYRAEIVLLLALVIFYLTLIIFTCKFARLQSIFPDFSKAGMERAFLPVTSPNKHLGLVTPHKTELV | 25.6 ± 5.2% | 25.7 ± 2.3% | 4.68 ± 0.067% | 8.57 ± 0.3% | 
10 | MSRLPVLLLLQLLVRPGLQAPMTQTTPLKTSWVNCSNMIDEIITHLKQPPLPLLDFNNLNGEDQDILMENNLRRPNLEAFNRAVKSLQNASAIESILKNLLPCLPLATAAPTRHPIHIKDGDWNEFRRKLTFYLKTLENAQAQQTTLSLAIF |  |  |  |  | percentage of EdU-negative (MCF7; [8]): 27.8 ± 0.94%; percentage of EdU-negative (MCF7; [9]): 23.6 ± 1.8%; percentage of EdU-negative (hTERT-HMEC; [8]): 5.21 ± 0.57%; percentage of EdU-negative (hTERT-HMEC; [9]): 4.85 ± 0.58%
